Target: chimeric OX40 construct 1549: Human OX40 with mouse domains 1A and 4B and region non-annotated extracellular region (aa 30-65 and aa 127-214) (human; mouse) (UniProt P47741)
Assay: flow cytometry, transfected 293-F cells

B1: anti-OX40 antibody 1514/1515 (antibody, V domains shown)
VH: EVQLLESGGGLVQPGGSLRLSCAASGFTFGYYYMSWVRQAPGKGLEWVSGISSYGSYTYYADSVKGRFTISRDNSKNTLYLQMNSLRAEDTAVYYCARSGYSNWANSFDYWGQGTLVTVSS
VL: DIQMTQSPSSLSASVGDRVTITCRASQSISSYLNWYQQKPGKAPKLLIYAASSLQSGVPSRFSGSGSGTDFTLTISSLQPEDFATYYCQQGDYTLFTFGQGTKLEIK
Binder B1 has a relative MFI compared to isotype control of 10.6.

B2: anti-OX40 antibody 1170/1171 (antibody, V domains shown)
VH: EVQLLESGGGLVQPGGSLRLSCAASGFTFGGYYMSWVRQAPGKGLEWVSYIPGSGGSTYYADSVKGRFTISRDNSKNTLYLQMNSLRAEDTAVYYCARYDYYWMDYWGQGTLVTVSS
VL: DIQMTQSPSSLSASVGDRVTITCRASQSISSYLNWYQQKPGKAPKLLIYAASSLQSGVPSRFSGSGSGTDFTLTISSLQPEDFATYYCQQGHGSYPHTFGQGTKLEIK
With B2 the relative MFI compared to isotype control was 12.1.

B3: anti-OX40 antibody 1524/1525 (antibody, V domains shown)
VH: EVQLLESGGGLVQPGGSLRLSCAASGFTFGSYYMGWVRQAPGKGLEWVSSIGSYYGYTYYADSVKGRFTISRDNSKNTLYLQMNSLRAEDTAVYYCARHDYGALDYWGQGTLVTVSS
VL: DIQMTQSPSSLSASVGDRVTITCRASQSISSYLNWYQQKPGKAPKLLIYAASSLQSGVPSRFSGSGSGTDFTLTISSLQPEDFATYYCQQYGPSGLFTFGQGTKLEIK
In the case of B3, the relative MFI compared to isotype control is reported as 11.2.

B4: anti-OX40 antibody 1166/1167 (antibody, V domains shown)
VH: EVQLLESGGGLVQPGGSLRLSCAASGFTFGGYYMSWVRQAPGKGLEWVSAISGSGGSTYYADSVKGRFTISRDNSKNTLYLQMNSLRAEDTAVYYCARYDYASMDYWGQGTLVTVSS
VL: DIQMTQSPSSLSASVGDRVTITCRASQSISSYLNWYQQKPGKAPKLLIYAASSLQSGVPSRFSGSGSGTDFTLTISSLQPEDFATYYCQQYYWYGLSTFGQGTKLEIK
B4 was tested, and the relative MFI compared to isotype control was 11.3.

B5: anti-OX40 antibody 1526/1527 (antibody, V domains shown)
VH: EVQLLESGGGLVQPGGSLRLSCAASGFTFSGYSMYWVRQAPGKGLEWVSGIGYSGYGTYYADSVKGRFTISRDNSKNTLYLQMNSLRAEDTAVYYCARYYFHDYAAYSLDYWGQGTLVTVSS
VL: DIQMTQSPSSLSASVGDRVTITCRASQSISSYLNWYQQKPGKAPKLLIYAASSLQSGVPSRFSGSGSGTDFTLTISSLQPEDFATYYCQQYGSDSLLTFGQGTKLEIK
B5 gave a relative MFI compared to isotype control of 8.5.

B6: anti-OX40 antibody 1482/1483 (antibody, V domains shown)
VH: EVQLLESGGGLVQPGGSLRLSCAASGFTFSSYAMSWVRQAPGKGLEWVSYISYYSGYTYYADSVKGRFTISRDNSKNTLYLQMNSLRAEDTAVYYCARGYGYLDYWGQGTLVTVSS
VL: DIQMTQSPSSLSASVGDRVTITCRASQSISSYLNWYQQKPGKAPKLLIYAASSLQSGVPSRFSGSGSGTDFTLTISSLQPEDFATYYCQQYGSLLTFGQGTKLEIK
Work on B6 yielded a relative MFI compared to isotype control of 8.7.

Source: patent US20200048358A1
